Laboratory results taken from the supplement of paper PMC11811203.

B1: THAP1; numbered along this chain (parent)
chain: MVQSCSAYGCKNRYDKDKPVSFHKFPLTRPSLCKEWEAAVRRKNFKPTKYSSICSEHFTPDCFKRECNNKLLKENAVPTIFLCTEPHDKKEDLLEPQEQLPPPPLPPPVSQVDAAIGLLMPPLQTPVNLSVFCDHNYTVEDTMHQRKRIHQLEQQVEKLRKKLKTAQQRCRRQERQLEKLKEVVHFQKEKDDVSERGYVILPNDYFEIVEVPA

Variants of: B1
Test: THAP1 transcriptional activity (GFP+/GFP- enrichment relative to wild-type constructs) (ratio to WT); higher = more THAP1 activity (PSMB5 reporter activation)
Conditions: with PSMB5 promoter-GFP reporter
How it was run: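 In duplicate, a lentivirus-delivered library with every residue from 2–213 of human THAP1 changed to all 20 amino acids was introduced at MOI ~0.3 into THAP1-knockout HEK-293T cells carrying endogenous PSMB5 tagged by mClover3 knock-in. Five days on, BFP+ cells were binned as GFP-dim or GFP-bright, and Illumina sequencing of genomic DNA amplicons counted each variant. Activity is the bright/dim read fold change, averaged over replicates and scaled to the mean of wild-type synonymous constructs.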

THAP1 transcriptional activity: each site, then its substitutions
V77: W 0.267 | Q 0.318 | H 0.287 | L 0.547 | M 0.439 | E 0.259 | D 0.295 | R 0.539 | Y 0.279 | S 0.41 | C 0.434 | F 0.325 | G 0.281 | N 0.195 | A 0.343
F81: Y 0.214 | V 0.312 | P 0.275 | D 0.125 | H 0.525 | G 0.402 | M 0.341 | A 0.367 | R 0.298 | S 0.443 | L 0.224 | N 0.75 | I 0.536 | C 0.223 | T 0.207 | E 0.405 | Q 0.206
L71: S 0.483 | M 0.941 | E 0.221 | P 0.113 | A 0.407 | Q 0.432 | F 0.361 | G 0.187 | Y 0.309 | R 0.39 | H 0.403 | D 0.74 | N 0.266 | K 0.533 | C 1.42 | V 1.47 | I 1.07 | W 0.259 | T 0.52
E66: M 0.558 | S 1.14 | N 2.46 | C 1.21 | W 1.25 | Y 0.777 | K 0.629 | L 0.436 | I 0.457 | V 0.638 | T 1.3 | Q 0.814 | R 0.539 | A 1.36 | F 0.996 | P 0.346
A76: C 0.862 | L 0.476 | P 0.384 | K 0.428 | G 0.221 | W 0.386 | F 0.307 | V 0.435 | M 0.215 | T 0.18 | N 0.121 | D 0.209 | I 0.165 | E 0.444 | Y 0.191 | Q 0.234
C67: R 0.502 | Y 0.2 | V 0.777 | P 0.13 | F 0.147 | K 0.472 | W 0.116 | T 1.19 | Q 0.239 | D 0.135 | N 0.17 | I 0.198 | A 0.639 | H 0.198 | E 0.119 | G 0.127 | L 0.481 | S 0.964 | M 0.594
N68: S 0.192 | L 0.131 | G 0.127 | D 0.0906 | R 0.161 | Q 0.193 | C 0.157 | W 0.089 | P 0.161 | H 0.2 | F 0.0942 | Y 0.125 | T 0.179 | I 0.15 | M 0.141 | A 0.103 | K 0.162 | V 0.125
N69: P 0.092 | H 0.344 | F 0.109 | V 0.399 | A 0.111 | L 0.301 | S 0.193 | D 0.131 | C 0.181 | K 0.133 | Y 0.261 | R 0.216 | W 0.0798 | I 0.672 | E 0.0951 | Q 0.143 | G 0.122 | T 0.226 | M 0.597
T79: K 0.278 | G 0.301 | W 0.281 | D 0.228 | C 0.183 | S 0.71 | A 0.438 | E 0.254 | P 0.18 | I 0.861 | H 0.293 | Y 0.151 | M 0.254 | N 0.622 | V 0.326 | L 0.628 | Q 0.296
F63: L 0.0863 | Q 0.0896 | Y 0.623 | M 0.089 | P 0.103 | W 0.473 | V 0.082 | T 0.128 | N 0.14 | R 0.084 | S 0.0787
N75: K 0.45 | C 0.38 | Q 0.684 | G 1.42 | D 0.507 | Y 0.177 | E 0.468 | V 0.214 | A 0.373 | I 0.302 | F 0.875 | L 0.286 | P 0.241 | H 0.567 | W 0.844 | T 0.612 | M 0.658 | R 0.829
K64: I 0.159 | A 0.0797 | S 0.123 | H 0.0785 | L 0.145 | T 0.115 | V 0.215 | R 1.06 | C 0.0975 | F 0.102 | G 0.219 | P 0.104 | Q 0.25 | M 0.112 | Y 0.0778 | N 0.237 | E 0.188 | W 0.0652 | D 0.151
K70: H 0.709 | E 0.134 | S 0.325 | R 2.14 | N 0.476 | Q 0.437 | W 0.129 | A 0.434 | I 0.33 | L 0.121 | C 0.313 | D 0.0985 | V 0.479 | P 0.178 | G 0.0856 | Y 0.12 | T 0.397 | F 0.163 | M 0.175
R65: D 0.388 | F 0.208 | Y 0.369 | E 0.629 | L 1.04 | N 0.596 | P 0.671 | V 0.559 | S 0.735 | W 0.212 | H 0.327 | C 0.173 | M 0.623 | Q 0.982 | A 0.63 | T 0.797 | G 0.424 | I 0.626
E74: P 0.952 | G 0.501 | L 0.384 | F 1.09 | S 0.604 | D 0.59 | V 0.618 | Y 0.453 | N 0.686 | A 0.445 | I 0.327 | C 0.522 | R 0.858 | M 0.293 | Q 1.17 | H 0.512 | T 0.334 | W 0.598
L82: C 0.521 | E 1.33 | G 1.31 | D 1.34 | A 1.84
I80: Q 0.628 | T 0.298 | P 0.235 | R 0.963 | N 0.429 | W 0.268 | V 0.963 | E 0.459 | L 0.606 | H 0.323 | D 0.29 | C 0.239 | G 0.55 | M 0.484 | S 0.272 | A 0.266 | F 0.463
P78: I 0.211 | F 0.267 | L 0.161 | T 0.283 | G 0.102 | D 0.183 | A 0.526 | V 0.191 | R 0.156 | Q 0.241 | E 0.463 | C 0.419 | M 0.495 | Y 0.488 | N 0.269
L72: M 0.106 | W 0.18 | V 0.172 | A 0.17 | E 0.322 | C 0.148 | H 0.134 | S 0.092 | T 0.0921 | N 0.129 | Q 0.163 | P 0.221 | K 0.0937 | R 0.0764 | D 0.169 | F 0.177 | I 0.173 | G 0.189 | Y 0.172
K73: E 0.261 | I 0.142 | S 0.154 | W 0.212 | P 0.102 | F 0.19 | D 0.191 | Y 0.291 | C 0.395 | T 0.514 | G 0.194 | A 0.31 | M 0.543 | Q 0.273 | N 0.522 | R 0.622 | H 0.598 | L 0.33 | V 0.644
